Assay results: US20140079714A1 (published 2014)
Residue numbers refer to the chain shown, from its start. Names and notes keep the numbering of the source. Each block holds one binder with its values, some of them ahead of it.

Columns and labels:
[1] = molecular target: T1, human interleukin 12 (hIL-12), p70 heterodimer of p35 and p40 (human, UniProt P29459 23-219; P29460 23-328); test: cell-based or functional assay
T1 sequence (looked up) 1: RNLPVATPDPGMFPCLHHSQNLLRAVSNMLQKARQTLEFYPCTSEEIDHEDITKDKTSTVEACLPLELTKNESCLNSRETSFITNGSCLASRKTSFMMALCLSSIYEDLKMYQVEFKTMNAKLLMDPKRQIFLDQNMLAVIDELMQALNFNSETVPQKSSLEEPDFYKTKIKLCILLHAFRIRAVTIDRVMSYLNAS
T1 sequence (looked up) 2: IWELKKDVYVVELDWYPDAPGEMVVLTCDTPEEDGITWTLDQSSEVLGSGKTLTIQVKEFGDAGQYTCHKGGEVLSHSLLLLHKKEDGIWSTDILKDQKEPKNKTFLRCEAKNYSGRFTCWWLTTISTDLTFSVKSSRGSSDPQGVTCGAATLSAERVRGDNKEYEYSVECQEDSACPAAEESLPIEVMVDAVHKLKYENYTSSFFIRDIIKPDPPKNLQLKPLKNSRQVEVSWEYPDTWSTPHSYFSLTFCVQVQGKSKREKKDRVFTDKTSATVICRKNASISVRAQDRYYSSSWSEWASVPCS

[2] = molecular target: T1, human interleukin 12 (hIL-12), p70 …; test: RB assay: inhibition of IL-12 binding to its receptor
[3] = molecular target: T1, human interleukin 12 (hIL-12), p70 …; test: koff, Table 2 (surface plasmon resonance per text)
[4] = molecular target: T1, human interleukin 12 (hIL-12), p70 …; test: cell-based or functional assay; remark: listed apart in the source

B1: Y61-L50Y (antibody, V domains shown)
VH: QVQLVQSGGGVVQPGRSLRLSCAASGFTFSSYGMHWVRQAPGKGLEWVAFIRYDGSNKYYADSVKGRFTISRDNSKNTLYLQMKSLRAEDTAVYYCKTHGSHDNWGQGTMVTVSS
VL: SYVLTQPPSVSGTPGQRVTISCSGGRSNIGSNTVKWYQQLPGTAPKLLIYYNDQRPSGVPDRFSGSKSGTSASLAITGVQAEDEADYYCQSYDRGTHPALLFGTGTKVTVLG
- IFN gamma IC50 [1]: 0.02 nM
- IC50 [2]: 0.02 nM

B2: Y61-L50Y* IgG (antibody, V domains shown)
VH: B1 VH
VL: B1 VL
notes: IgG
- IFN gamma IC50 [1]: 0.03 nM
- PHA assay IC50 [1]: 0.02 nM
- koff [3]: 6.98e-05 s⁻¹

More lines, now with the values ahead:

- IFN gamma IC50 [1]: 0.02 nM
- PHA assay IC50 [1]: 0.06 nM
- koff [3]: 2.99e-05 s⁻¹
B3: Y-61-L50Y-H31E**gG (antibody, V domains shown)
VH: B1 VH with S31E
VL: B1 VL
notes: also called Y61-L50Y-H31E IgG

- IFN gamma IC50 [1]: 0.04 nM
- PHA assay IC50 [1]: 0.05 nM
- koff [3]: 0.000127 s⁻¹
- IC50 [2]: 0.06 nM
B4: Y61-L94Y IgG (antibody, V domains shown)
VH: B1 VH
VL: B1 VL with Y51G, G95Y
notes: IgG

- PHA assay IC50 (M) p70:p40 1:0 [4]: 3.5e-09 M
- PHA assay IC50 (M) p70:p40 1:20 [4]: 2.5e-09 M
- PHA assay IC50 (M) p70:p40 1:50 [4]: 4e-09 M
B5: 149-7 (antibody, V domains shown)
VH: TTHGSHDNWGQG
VL: QSYDRDFTGSRV
